Assay results as given in the nanobody polyreactivity screen of Harvey et al. (2022).

test: yeast display, Sf9 membrane polyspecificity reagent, FACS + sequencing; frameworks hold sequencing errors
Procedure, shortened: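 Synthetic nanobody libraries on Saccharomyces cerevisiae BJ5465 were galactose-induced for 36–48 hours, stained 1 hour at 4 °C with 10% biotinylated, detergent-solubilized Sf9 membrane reagent and enriched on streptavidin microbeads. FACS then separated cells into low and high (top ~1%) gates by anti-HA (expression) and streptavidin (reagent binding) fluorescence. Genes were colony-PCR amplified, MiSeq 2 × 250 sequenced and CDR-length filtered. A clone's polyreactivity label is that of its gate of origin.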

Sequence | polyreactivity (PSR sort gate)
QVQLVESGGGLVQAGGSLRLSCAASGRTFSYNAMGWYRQAPGKERELVAAIDWSGGRTYYADSVKGRFTISRDNAKNTVYLQMNSLKPEDTAVYYCNKAVRSSYSAWQYGMYYWGQGTQVTVSS | high polyreactivity
QVQLVESGGGLVQAGGSLRLSCAASGRTFSYNAMGWYRQAPGKERELVARISSGGSTNYADSVKGRFTISRDNAKNTVYLQMNSLKPEDTAVYYCNAGSYVWEEDYCGQGTQVTVSS | high polyreactivity
QVQLVESGGGLVQAGGSLRLSCAASGRTFSYNAMGWYRQAPGKEWELVAAISWGGGSTYYADSVKGRFTISRDNAKNTVYLQMNSLKPEDTAVYYCAAKRLTSRQHDYWGQGTQVTVSS | high polyreactivity
QVQLVESGGGLVQAGGSLRLSCAASGRTFSYNVMGWYRQAPGKERELVASTYYADSVKGRFTISRDIAKNTVYLQMNSVKPEDTAVYYCNRDKPGLFFTSYNYSSSYDYWGQGTLVTVSS | low polyreactivity
QVQLVESGGGLVQAGGSLRLSCAASGRTFSYYAMGWYRKAPGKERELVASISGGGRTNYADSVKGRFTISRDNAKNTVYLQMNSLKPEDTAVYYCAARYLITRQYKRGYWGQGTQVTVSS | high polyreactivity
QVQLVESGGGLVQAGGSLRLSCAASGRTFSYYAMGWYRQAPGKERELVASIRKSGASTYYADSVKGRFTISRDNAKNTVYLQMNSLKPEDTAVYYCAARGSRKPDWGLGYWGQGTQVTVSS | high polyreactivity
QVQLVESGGGLVQAGGSLRLSCAASGRTFSYYAMGWYRQAPGKERELVASISYSAGRTYYADSVKGRFTISRDNAKNTVYLQMNSLKPEDTAVYYCAVRGVRRFPVRTGSYTRYGDYYWGQGTQVTVSS | high polyreactivity
QVQLVESGGGLVQAGGSLRLSCAASGRTFSYYAMGWYRQAPGKERELVASITSGGRTYYADSVKGRFTISRDNAKNTFYLQMNSLKPEDTAVYYCNVDNQYLDRYGRRYGYWGQGTQVTVSS | low polyreactivity
QVQLVESGGGLVQAGGSLRLSCAASGRTFSYYAMGWYRQAPGKERELVATIRFSAGGTYYADSVKGRFTISRDNAKNTVYLQMNSLKPEDTAVYYCNADSIDPFLYDYWGQGTQVTVSS | low polyreactivity
QVQLVESGGGLVQAGGSLRLSCAASGRTFSYYAMGWYRQATGKERELVAAINSSGGRTYYADSVKGRFTISRDNAKNTVYLQMNSLKPEDTAVYYCAARSYSTSSHHGYWGQGTQVTVSS | high polyreactivity
QVQLVESGGGLVQAGGSLRLSCAASGRTFSYYGMGWYRKAPGKERELVAGISIRGSHTYYADSVKGRFTISRDNAKNTVFLQMNSLKPEDTGVYYCAARWIGLYSYEYWGQGSQVTVSS | high polyreactivity
QVQLVESGGGLVQAGGSLRLSCAASGRTFTANAMGWYRQAPGKERELVAAIRWRGGSTSYADSVKGRFTISRDNAKNTVYLQMNSLKPEDTAVYYCAAESRWRSSAGGYYYWGQGTQVTVSS | low polyreactivity
QVQLVESGGGLVQAGGSLRLSCAASGRTFTAYAMGWYRQAPGKERELVAAITSGGSTYYADSVKGRFTISRDNAKNTVYLQMNSLKPEDTAVYYCATDLYSFYWPEYEYWGQGTQVTVSS | low polyreactivity
QVQLVESGGGLVQAGGSLRLSCAASGRTFTDNAMGWYRQAPGKERELVAAISRRGGSTYYADSVKGRFTISRDNAKNTVYLQMNSLKPEDTAVYYCARASRDIRPYDYWGQGTQVTVSS | high polyreactivity
QVQLVESGGGLVQAGGSLRLSCAASGRTFTEYAMGWYRQAHGKERELVARISIGDSTYYADSVKGRFTISRDNAKNTVYLQMNSLKPEDTAVYYCNAEYSRSYRYDEGYWGQGTKVTVSS | low polyreactivity
QVQLVESGGGLVQAGGSLRLSCAASGRTFTGNAMGWYRPAPGKERELVADNNLSGGDTYYADSVKGRFTISRDNAKNTVYLQMNSLKPEDTAVYYCNARVRDKRTGRYGYWGQGTQVTVSS | high polyreactivity
